The nanobody polyreactivity screen of Harvey et al. (2022)

Experiment: yeast display, Sf9 membrane polyspecificity reagent, FACS + sequencing; frameworks hold sequencing errors
Procedure, shortened: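 A nanobody's polyreactivity label depends on the gate it was sorted from. Yeast display cells were stained with 10% biotinylated, detergent-solubilized Sf9 membrane reagent for 1 hour at 4 °C, enriched on streptavidin microbeads and sorted by FACS. The low and high (top ~1%) gates were set on anti-HA fluorescence for expression and streptavidin fluorescence for reagent binding.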

Sequence	polyreactivity (PSR sort gate)
QVHLVESGGGLVKAGGSLRLSCAASGITFGSYAMGWYRQAPGKERELVAAIDTSGDDTYYADSVKGRFTISRDNAKNTVYLQMNSLKPEDTAVYYCAADFPSAEVDYWGQGTQVTVSS	low polyreactivity
QVQLVESGGGLVQAGGSLRLSCAASGFIFHDNAMGWYRQAPGKERELVAAISRSGGRTYYADSVKGRFTISRDNAKNTVYLQMNSLKPEDTAVYYCAAVPPPGGLDYWGQGTQVTVSS	high polyreactivity
QVQLVESGGGLVQAGGSLRLSCAASGRIIAWNDMGWYRQAPGKERELVAAIRWSSGTTYYADSVKGRFTISRDNAKNTVYLQINSLKPEDTAVYYCAAGGHARTWYAYYYWGQGTQVTVSS	low polyreactivity
QVQLVESGAGLVQAGGRLRLSCAASGIIFYNYAMGWYRQAPGKERQFVAAISWSGGSTNYADSVKGRFTISRDNAKNTVYLQMNSLKPEDTAVYYCAAEYSGNNYNSDYWGQGTQVTVSS	low polyreactivity
QVQLVESGLGLVQAGGSLRLSCAASGFIFGSYAMGWYRQAPGKERELVAAISWSGGGTYYADSVKGRFTISRDNAKNTVYLQMNSLKPEDTAVYYCNARQFSGLGYWGQGTQVTVSS	high polyreactivity
QVQLVESGGGLVQAGGSLRLSCAASGRTFVYNAMGWYRPAPGKERELVAAIDGGGDRTYYADSVKGRFTISRDNAKNTVYLQMNSLKPEDTAVYYCARDPGDTYYYSYPEGDYWGQGTQVTVSS	low polyreactivity
QVQLIESGGGLVQAGGSLRLSCAASGSIFAANAMGWYRQAPGKEREFVASISYTGASTYADSVKGRFTISRDNAKNTVYLQMKSLKPEDTAVYYCAKDGYWTGLDPYYYWGQGTQVTVSS	low polyreactivity
EVQLVESGGGLLQPGGSLRVSFAASGYIYSRYRMGWYRQAPGKGREFVAAISGGSSTNYADSVKGRFTISRDNSKNTVFLQMNSLRAEDTAVFYCADFKIDSDPRVYWGQGTQVTVSS	low polyreactivity
QVQLVESGGGLVQAGGSLRLSCAASGSIFGRNAMGWYRQAPGKERELVARISSRGGSTYYADSVKGRFTISRDNAKNTVYLQMNSLKPEDTAVYYCNRDRTWQTNDYWGQGTQVTVSS	high polyreactivity
QVQLVESGGGLVQAGGSLRLSCAASGSIFSLYAMGWYRQAPGKERELVADIRTSTGRTYYADSVKGRFTISRDNAKNTVYLQMNSLKPEDTAVYYCNADEYKSAVSVGYEYWGQGTQVTVSS	high polyreactivity
QVQLVESGGGLVQAGGSLRLSCAASGRILAPYAMGWYRQAPGKERELVAAINWSTGRTYYADSVKGRFTISRDNAKNTVYLQMNSLKPEDTAVYYCAALIVFDTLYDYGYWGQGPQVTVSS	low polyreactivity
QVQLVESGGGLVQAGGSLRLSCAASGFTFSVYAMGWYRQAPGKERELVAAISDSGGRTYYADSVKGRFTISRDNEKNTVYLQMNSLKPEDSAVYYWKARPAGRGYNYWGQGTQVTVSS	high polyreactivity
QVHLVESGGGLVQAGGSLRLSCAASGRTFGYYAMGWYRHAPGKERELVAAISRSAATTYYADSVKGRFSISRDNAKNTVYLQMYSLKPDDTAVYYCAAGGRTYAPCDYGYWGQGTQVTVSS	high polyreactivity
QVQLVETGGGLVQAGGSLRLSCAASGITLYFYAMGWSRQAPGKEREMVAGISGSVGSTHYADSVKGRFTISRDNAKNTVYSQMNSLKPEDTAVYYCDAAQVGYYVASVTYGYWGQGTQVTVSS	high polyreactivity
QVQLEESGGGLVQAGGRLRLSCAASGFTFGRYTMGWYRHAPGKERELVAAITWTGGRTYYADSVKGRFTISRDNAKNTVYLQMNSLKPEDTAVYYCAADTTIIIAQSEDDLWGQGTQVTVSS	high polyreactivity
QVQLVESGGGLVQAGGSLRLSCADSGRIFSPNAMGWYRQAPGKETELVASISSAGSTNYADSVKGRFTISRDNAKNTVYLQMNSLKPEDTAFYYCAADYYGYWLSVHAWGAVTFDYWGQGTQVTVSS	low polyreactivity
QVQLVESGGGLVQAGGSLRLSCAASGYIFLTNAMGWYRPAPGKERELVAAISVSGGRTYYADSVKGRFTISRDNAKNTVYLQMNSLKPEDTAVYYCNTLLTYGYDYWGQGTQVTVSS	low polyreactivity
QVQLVESGGGLDQAGGSLRLSCAASGFIFFINDMGWYRQAPGKERELVAAISWSGGSTYYADSVKGRFTISRDNAKNTVYLQMNSLKPEDTAVYYCNTDVPTAQYDYWGQGTQVTVSS	low polyreactivity
QVHLVESGGGLVQAGGSLRLSSAASGNIFESYALGWYRQAPGKERELVAAISGSGDSTNYADSVKGRFTISRDNAKNSVYLQMNSLKPEDTAVYYCAARPEVRHQYRRYDYWGQGTQVTVSS	low polyreactivity
QVQLVESGGGIVQAGGSLRLSCAASGIIFLDYVMVWYRQAPGKERELVAAINSGGSTYYADSVKGRFTISRDNAKNTVYLQMNSLIPEDTAVYYCAADDYYKFDYWGQGTQVTLSS	low polyreactivity
QVQLLESGGGLFQTGGSLRLSCAASGRTFWNYAKGWYRQAPGKERELVAVIRFSDGSTYYADSVKGRFTISRDNAKNTVYLQMNSLKPQDTAVYYSAAKGPRRWGSGFDYWGQGTQVTVSS	low polyreactivity
